Experimental data from the supplement of paper PMC12636428.

system: Saccharomyces cerevisiae; assay: transcriptional activation domain activity (GFP:mCherry ratio, weighted mean of sorted bins, harmonized to initial dataset scale) (arbitrary fluorescence ratio units); higher = stronger transcriptional activation; details: beta-estradiol 1 µM; induction time 4 h
Method in brief: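 Activation activity, the read-weighted mean of bin median fluorescence averaged across barcodes, was linearly mapped onto the scale of the initial dataset. It was measured for barcoded protein tiles fused to an estradiol-inducible synthetic transcription factor at URA3 in GFP-reporter yeast diploids. Cultures diluted 1:5 into SC with 1 uM beta-estradiol were held 4 hours at 30 °C, sorted into 8 bins by GFP:mCherry ratio, and barcode-sequenced, and tiles under 50 reads were discarded.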

Question: How did the “transcriptional activation domain activity” value turn out when “MFLLFRSPCLLVLYIFWVGQSGVGLRGVGVHHFFFFFFSLLAALLLFCLCGAI” was run?
Answer: 29400

Question: Which “transcriptional activation domain activity” value does the source give for “VACEEEMRKLDEEDGRAGLGKGGEGEADREFKRHLRRMRASEVRIVRNVGDLL” here?
Answer: 29000

Question: With “FYWIPIFRAVGKYKYSNLLNKFLLDLHLRYPKKLQNAIRSNWLCNPSGKKNKF” as the sequence, how does the “transcriptional activation domain activity” value read?
Answer: 64100

Question: For “IAQLRRDLFHAVWRLILTPALAEAYCHGIVIMCGDGVLRRVFPRFLLYSADYP”, which “transcriptional activation domain activity” value is on record?
Answer: 63900

Question: With “TNTGFGASNTPAGGAGGGGGIFGSGTSGFGGGTSAFGAANNNNAFGAKPAFGA” as the sequence, how does the “transcriptional activation domain activity” value read?
Answer: 45600

Question: “QRGVGTGVLKVGVDGGGHDEERIRWEAEMVGRERNWVLKKFLGQAISSQLDHA” was tested. Which “transcriptional activation domain activity” value did it give?
Answer: 44800

Question: With “KFYARILKLLLLLNHILIIAGVNESPYSKDKVIRYLFNMFRLWTTKRSAKENQ” as the sequence, how does the “transcriptional activation domain activity” value read?
Answer: 62000

Question: For “VAKCFEKVKALIGTFDLDVGRVLDVTLDVFASLLVKHHKFFIKLLRCSYWWPV”, which “transcriptional activation domain activity” value is on record?
Answer: 83300

Question: How did the “transcriptional activation domain activity” value turn out when “LLDELMNQTKVLQETLDFSLVTPTPHHNDDYKIHGSAYPGGETPAQQHEKLSY” was run?
Answer: 35700

Question: With “VGLFGMGQKRISALIGVLFAFTLGCVLILRWRLPWYRNLIQTLLYHLFVIYLH” as the sequence, how does the “transcriptional activation domain activity” value read?
Answer: 52600

Question: Which “transcriptional activation domain activity” value does the source give for “EFPAPPARPPPSHTAPPAPPPPPPPPPPPAAGGGVPPPPPPPPPPATGGAPAP” here?
Answer: 30300

Question: For “CYWKAKAPPYVLPMLILSKRLHSIFVLRCFNDCFAVLFLWLAILCLQRRSWQL”, which “transcriptional activation domain activity” value is on record?
Answer: 67900

Question: For “YGVHLLARFAWWFPSMSAIIAKLEGTINKLHILSHKELCQIIHNLNWLLYVGL”, which “transcriptional activation domain activity” value is on record?
Answer: 71400

Question: “FSFGLLFWFLFLFLFLLLFVFLFWSFGFVLLLVLVLFLCSFLLFMFGFWFSSG” was tested. Which “transcriptional activation domain activity” value did it give?
Answer: 47100

Question: How did the “transcriptional activation domain activity” value turn out when “FLVRLFVLPVTLCMLYRCSVSLDLSRLNGSARNEWFNYWNKALLLGMTLFSMR” was run?
Answer: 62500

Question: For “MHLQGFVAWMFYILNCLAFSLRIISHWIFPIYLIWGIGLVENDYSSIDSWFLL”, which “transcriptional activation domain activity” value is on record?
Answer: 42100

Question: With “DREKRSSGHRNGRRHRGHRSGRKQRRSRSRSRGDRPDSPVRAKEGEGGAKDRK” as the sequence, how does the “transcriptional activation domain activity” value read?
Answer: < 6570

Question: How did the “transcriptional activation domain activity” value turn out when “KPLGRQELQRFVALLHSHLETQILEYMHTRRKLSDVVLFLRRTLATCLLLYGC” was run?
Answer: 38100

Question: For “FTELEKHSNVSQFNTLDVSEGNQVINESASTNTSSALNCQSYTNNQDIMDILF”, which “transcriptional activation domain activity” value is on record?
Answer: 48800

Question: How did the “transcriptional activation domain activity” value turn out when “QLTRGNWSDLFFLFIFLWIVLFFFLLHWSWAWLLVFVLSICSSGLLGAILFFF” was run?
Answer: 27200

Question: How did the “transcriptional activation domain activity” value turn out when “MLLCLSFLCCYYDISNVSRCYCLFCCIILLFLSCSLLFWLAFSQFLRFFLISF” was run?
Answer: 62000

Question: With “QAATGVGILLLLHDFKRVSIVILAQDGCDDEGWPNQLVAFAALLRSRLLKGGE” as the sequence, how does the “transcriptional activation domain activity” value read?
Answer: 22100

Question: With “EVDAEAAEKPVKRLTRKARGVTEENQTSDAQSSRPAPVRRGRKPASVASTTAP” as the sequence, how does the “transcriptional activation domain activity” value read?
Answer: 54700

Question: For “DADSAQVAGECVVCQDEEANVVIVECGYVSLIIHLTLHRFIVLASLVISHYAQ”, which “transcriptional activation domain activity” value is on record?
Answer: 63900

Question: How did the “transcriptional activation domain activity” value turn out when “GHLLVVSISIIIKAMHGCLYCPIFMYVTTYGYYLWIASFIWRAYYLRFQLTLH” was run?
Answer: 43600

Question: How did the “transcriptional activation domain activity” value turn out when “MIGVVCALYLFFFPSFFLLFFFSTLLDDDTLIIYKFFLLWESWFVAFILFFYL” was run?
Answer: 24900

Question: With “SVGASSGSGSGSGKRRGEEGEEGDEGEEGEEGDEGEEGDEEEGVEELVQGEGQ” as the sequence, how does the “transcriptional activation domain activity” value read?
Answer: 7800

Question: For “KIHLVNLAQVSVFFIHRVLYGIIPLFEIKTCAYFPLLVSLWHMTYILFYIVMF”, which “transcriptional activation domain activity” value is on record?
Answer: 71200

Question: For “RPSSAVVHAPRSKRAALRPSAPARCPPSSSSSSSPSTSPSCRRPASPTTSTCP”, which “transcriptional activation domain activity” value is on record?
Answer: 30700

Question: How did the “transcriptional activation domain activity” value turn out when “MAWHFVWQDIPLMGTMHQISYLLNNFIYCFPIAHVHLQVCFFSSLLLIHFYTF” was run?
Answer: 68200

Question: How did the “transcriptional activation domain activity” value turn out when “IMYIICLTIAPSFLCGVLYVSLSRFIAALGHQYSLVPPWLISWVFIFGDFLSL” was run?
Answer: 62600

Question: How did the “transcriptional activation domain activity” value turn out when “EYFYYKMLAPSAATVFYVYVGLIKMSIALFNIRLTTLTTKLWGNVNWAFFVIC” was run?
Answer: 63000

Question: For “RLAELCLLIDPRLLVKLAGVMARYIESMATYRAHPRQIYNRQCSVFNTSLKLF”, which “transcriptional activation domain activity” value is on record?
Answer: 62200

Question: For “VEFLFPIYATVAFTTLGCISMFALPYAVLTILPNFYLNCPYGTPLSGVTWRLS”, which “transcriptional activation domain activity” value is on record?
Answer: 61600
